The results in this text go back to publication PMC5453731 (Cell chemical biology, 2017).

Usually Kd stands for the concentration at which binding is half-saturated. Lower therefore signals higher affinity.

The labels stand for the following.
T1: Rpn1^PC1 (Rpn1^391–642) (yeast (BY4741), UniProt P38764 391-642)
T1 sequence (looked up): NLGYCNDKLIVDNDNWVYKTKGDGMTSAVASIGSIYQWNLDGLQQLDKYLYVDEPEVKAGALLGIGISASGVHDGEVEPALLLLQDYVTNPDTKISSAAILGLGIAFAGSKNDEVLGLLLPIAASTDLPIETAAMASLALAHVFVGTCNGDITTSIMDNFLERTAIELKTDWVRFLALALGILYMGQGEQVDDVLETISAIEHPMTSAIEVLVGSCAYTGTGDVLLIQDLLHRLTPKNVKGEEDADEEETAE

B1: Rub1 (natural protein, yeast (BY4741), UniProt Q03919 1-77, looked up)
chain: MIVKVKTLTGKEISVELKESDLVYHIKELLEEKEGIPPSQQRLIFQGKQIDDKLTVTDAHLVEGMQLHLVLTLRGG
modifications: 15N-labelled
B2: Ubp6^UBL (domain or fragment, yeast (BY4741), UniProt P43593 1-80, looked up)
chain: MSGETFEFNIRHSGKVYPITLSTDATSADLKSKAEELTQVPSARQKYMVKGGLSGEESIKIYPLIKPGSTVMLLGTPDAN
modifications: 15N-labelled
B3: Dsk2^UBL (domain or fragment, yeast (BY4741), UniProt P48510 1-76, looked up)
chain: MSLNIHIKSGQDKWEVNVAPESTVLQFKEAINKANGIPVANQRLIYSGKILKDDQTVESYHIQDGHSVHLVKSQPK

This assay has as its target T1, Rpn1^PC1 (Rpn1^391–642). Kind of assay: NMR titration.
B1: the equilibrium dissociation constant (Kd) stood at 280 ± 20 µM.
With B2 the figure was 40 ± 31 µM.
With B3 the figure was 22 ± 12 µM.
